Measurements from article PMC7610691 (Nature structural & molecular biology, 2020).

Assays:
[1] = biological target: T1, Ycg1 (S. cerevisiae condensin HEAT-repeat subunit) (S. cerevisiae, UniProt Q06680 1-1035); assay: cryo-EM structure
T1 sequence: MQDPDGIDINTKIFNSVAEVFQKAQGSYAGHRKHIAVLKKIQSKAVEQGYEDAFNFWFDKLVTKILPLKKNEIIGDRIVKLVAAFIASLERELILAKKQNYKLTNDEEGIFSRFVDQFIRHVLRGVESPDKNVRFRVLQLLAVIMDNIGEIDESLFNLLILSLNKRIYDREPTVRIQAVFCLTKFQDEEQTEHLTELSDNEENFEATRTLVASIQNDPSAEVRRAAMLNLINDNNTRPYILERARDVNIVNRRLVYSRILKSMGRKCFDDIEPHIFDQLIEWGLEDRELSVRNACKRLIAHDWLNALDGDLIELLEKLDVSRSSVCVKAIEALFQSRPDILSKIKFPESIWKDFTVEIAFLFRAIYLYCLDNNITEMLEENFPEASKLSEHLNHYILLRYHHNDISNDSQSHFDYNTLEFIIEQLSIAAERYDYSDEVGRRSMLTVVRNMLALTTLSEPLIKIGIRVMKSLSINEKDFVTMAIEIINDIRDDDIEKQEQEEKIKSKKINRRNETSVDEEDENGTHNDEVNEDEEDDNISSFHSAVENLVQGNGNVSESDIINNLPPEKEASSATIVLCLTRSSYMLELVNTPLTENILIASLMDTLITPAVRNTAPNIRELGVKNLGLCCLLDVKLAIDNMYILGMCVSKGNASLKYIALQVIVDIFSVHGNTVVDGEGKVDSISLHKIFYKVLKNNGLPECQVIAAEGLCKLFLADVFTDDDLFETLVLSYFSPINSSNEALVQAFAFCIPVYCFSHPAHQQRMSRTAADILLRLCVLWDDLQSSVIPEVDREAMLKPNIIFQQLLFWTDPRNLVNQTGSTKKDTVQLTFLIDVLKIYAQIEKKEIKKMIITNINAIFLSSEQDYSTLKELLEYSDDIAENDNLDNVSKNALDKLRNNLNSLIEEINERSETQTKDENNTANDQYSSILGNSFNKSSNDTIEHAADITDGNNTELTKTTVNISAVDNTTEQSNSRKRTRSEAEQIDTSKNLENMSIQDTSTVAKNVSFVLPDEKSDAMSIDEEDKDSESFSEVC

[2] = biological target: T2, Smc4 (S. cerevisiae condensin subunit) (S. cerevisiae, UniProt Q12267 1-1418); assay: cryo-EM structure
T2 sequence: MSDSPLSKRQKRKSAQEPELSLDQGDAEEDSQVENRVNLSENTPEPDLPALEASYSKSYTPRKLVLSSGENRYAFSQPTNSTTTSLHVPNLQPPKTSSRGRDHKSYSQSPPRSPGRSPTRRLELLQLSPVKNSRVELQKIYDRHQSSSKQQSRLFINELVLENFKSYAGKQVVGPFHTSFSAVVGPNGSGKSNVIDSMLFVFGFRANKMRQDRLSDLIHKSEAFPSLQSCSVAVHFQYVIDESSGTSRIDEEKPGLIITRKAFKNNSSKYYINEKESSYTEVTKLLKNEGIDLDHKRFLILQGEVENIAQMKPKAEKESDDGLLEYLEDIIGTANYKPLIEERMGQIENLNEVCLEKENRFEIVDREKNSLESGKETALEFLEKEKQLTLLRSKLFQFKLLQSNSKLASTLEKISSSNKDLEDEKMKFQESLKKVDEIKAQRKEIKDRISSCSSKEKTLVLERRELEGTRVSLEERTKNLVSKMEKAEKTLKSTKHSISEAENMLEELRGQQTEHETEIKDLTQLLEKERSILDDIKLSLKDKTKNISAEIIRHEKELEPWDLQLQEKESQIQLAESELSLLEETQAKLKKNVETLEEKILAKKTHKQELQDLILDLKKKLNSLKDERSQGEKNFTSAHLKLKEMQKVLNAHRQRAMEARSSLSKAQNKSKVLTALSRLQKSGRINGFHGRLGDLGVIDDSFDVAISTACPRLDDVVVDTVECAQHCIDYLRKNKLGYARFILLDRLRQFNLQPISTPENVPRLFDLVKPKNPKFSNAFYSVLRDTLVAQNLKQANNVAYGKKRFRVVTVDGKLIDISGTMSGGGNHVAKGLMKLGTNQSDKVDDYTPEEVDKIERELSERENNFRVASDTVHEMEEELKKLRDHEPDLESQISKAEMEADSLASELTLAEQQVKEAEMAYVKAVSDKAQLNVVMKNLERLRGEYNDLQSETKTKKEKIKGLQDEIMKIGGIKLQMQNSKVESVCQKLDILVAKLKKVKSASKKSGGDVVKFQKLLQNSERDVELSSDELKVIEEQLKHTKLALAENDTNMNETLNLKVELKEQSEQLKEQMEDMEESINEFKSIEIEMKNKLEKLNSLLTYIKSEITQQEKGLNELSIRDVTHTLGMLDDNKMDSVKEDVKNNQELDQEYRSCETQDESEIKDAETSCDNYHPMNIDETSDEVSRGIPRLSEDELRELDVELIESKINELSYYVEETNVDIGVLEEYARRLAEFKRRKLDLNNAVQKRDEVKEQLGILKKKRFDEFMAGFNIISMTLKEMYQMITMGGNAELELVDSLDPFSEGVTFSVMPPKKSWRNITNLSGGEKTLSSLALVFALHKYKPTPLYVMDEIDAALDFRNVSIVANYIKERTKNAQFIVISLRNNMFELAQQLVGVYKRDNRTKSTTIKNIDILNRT

B1: Brn1 (S. cerevisiae condensin kleisin subunit) (natural protein)
chain: MTTQLRYENNDDDERVEYNLFTNRSTMMANFEEWIKMATDNKINSRNSWNFALIDYFYDLDVLKDGENNINFQKASATLDGCIKIYSSRVDSVTTETGKLLSGLAQRKTNGASNGDDSNGGNGEGLGGDSDEANIEIDPLTGMPISNDPDVNNTRRRVYNRVLETTLVEFETIKMKELDQELIIDPLFKKALVDFDEGGAKSLLLNTLNIDNTARVIFDASIKDTQNVGQGKLQRKEEELIERDSLVDDENEPSQSLISTRNDSTVNDSVISAPSMEDEILSLGMDFIKFDQIAVCEISGSIEQLRNVVEDINQAKDFIENVNNRFDNFLTEEELQAAVPDNAEDDSDGFDMGMQQELCYPDENHDNTSHDEQDDDNVNSTTGSIFEKDLMAYFDENLNRNWRGREHWKVRNFKKANLVNKESDLLEETRTTIGDTTDKNTTDDKSMDTKKKHKQKKVLEIDFFKTDDSFEDKVFASKGRTKIDMPIKNRKNDTHYLLPDDFHFSTDRITRLFIKPGQKMSLFSHRKHTRGDVSSGLFEKSTVSANHSNNDIPTIADEHFWADNYERKEQEEKEKEQSKEVGDVVGGALDNPFEDDMDGVDFNQAFEGTDDNEEASVKLDLQDDEDHKFPIRENKVTYSRVSKKVDVRRLKKNVWRSINNLIQEHDSRKNREQSSNDSETHTEDESTKELKFSDIIQGISKMYSDDTLKDISTSFCFICLLHLANEHGLQITHTENYNDLIVNYEDLATTQAAS
[1]
  binding result: binds
[2]
  binding result: binds
